Assay results taken from patent US20250270341A1 (Alector, published 2025).

T1: Full length mouse CD98hc on CHO cells (mouse, UniProt P10852 1-526)
T1 construct: CHO cells stably overexpressing it; also called CHO-mouse CD98hc; CHO-mCD98hc
T1 sequence: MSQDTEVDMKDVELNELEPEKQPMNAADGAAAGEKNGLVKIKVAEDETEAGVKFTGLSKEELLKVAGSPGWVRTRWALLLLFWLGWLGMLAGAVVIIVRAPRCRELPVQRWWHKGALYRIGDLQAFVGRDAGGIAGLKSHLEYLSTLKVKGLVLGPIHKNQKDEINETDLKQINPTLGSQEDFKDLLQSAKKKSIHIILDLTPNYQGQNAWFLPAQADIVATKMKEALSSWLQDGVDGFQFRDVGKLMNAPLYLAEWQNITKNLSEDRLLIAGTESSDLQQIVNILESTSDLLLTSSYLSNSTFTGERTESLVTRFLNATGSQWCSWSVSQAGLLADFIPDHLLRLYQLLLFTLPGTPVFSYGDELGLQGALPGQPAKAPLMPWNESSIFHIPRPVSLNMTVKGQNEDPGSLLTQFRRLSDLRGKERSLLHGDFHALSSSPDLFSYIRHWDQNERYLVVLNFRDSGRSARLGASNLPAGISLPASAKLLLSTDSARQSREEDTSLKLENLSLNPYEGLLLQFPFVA

T2: human CD98hc endogenously expressed on HCMEC/D3 cells (human)
T2 construct: human brain endothelial cell line
T2 chain: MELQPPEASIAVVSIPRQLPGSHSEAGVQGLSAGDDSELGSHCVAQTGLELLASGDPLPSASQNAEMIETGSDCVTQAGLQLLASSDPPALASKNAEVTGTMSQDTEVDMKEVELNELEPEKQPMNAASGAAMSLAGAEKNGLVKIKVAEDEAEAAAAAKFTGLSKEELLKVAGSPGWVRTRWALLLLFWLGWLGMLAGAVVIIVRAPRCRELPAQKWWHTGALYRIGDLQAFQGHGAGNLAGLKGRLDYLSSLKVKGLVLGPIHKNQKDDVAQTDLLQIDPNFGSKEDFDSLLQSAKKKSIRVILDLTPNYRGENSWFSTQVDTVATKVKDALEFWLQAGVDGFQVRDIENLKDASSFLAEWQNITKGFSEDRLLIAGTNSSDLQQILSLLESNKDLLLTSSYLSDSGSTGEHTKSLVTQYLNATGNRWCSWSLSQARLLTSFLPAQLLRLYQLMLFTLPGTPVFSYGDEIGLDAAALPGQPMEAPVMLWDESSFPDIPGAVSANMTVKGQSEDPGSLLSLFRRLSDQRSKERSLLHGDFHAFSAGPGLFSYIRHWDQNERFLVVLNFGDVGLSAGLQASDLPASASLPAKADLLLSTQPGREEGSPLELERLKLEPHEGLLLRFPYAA

T3: Full length human CD98hc on CHO cells (human)
T3 construct: CHO cells stably overexpressing it; also called CHO-human CD98hc; CHO-huCD98hc
T3 chain: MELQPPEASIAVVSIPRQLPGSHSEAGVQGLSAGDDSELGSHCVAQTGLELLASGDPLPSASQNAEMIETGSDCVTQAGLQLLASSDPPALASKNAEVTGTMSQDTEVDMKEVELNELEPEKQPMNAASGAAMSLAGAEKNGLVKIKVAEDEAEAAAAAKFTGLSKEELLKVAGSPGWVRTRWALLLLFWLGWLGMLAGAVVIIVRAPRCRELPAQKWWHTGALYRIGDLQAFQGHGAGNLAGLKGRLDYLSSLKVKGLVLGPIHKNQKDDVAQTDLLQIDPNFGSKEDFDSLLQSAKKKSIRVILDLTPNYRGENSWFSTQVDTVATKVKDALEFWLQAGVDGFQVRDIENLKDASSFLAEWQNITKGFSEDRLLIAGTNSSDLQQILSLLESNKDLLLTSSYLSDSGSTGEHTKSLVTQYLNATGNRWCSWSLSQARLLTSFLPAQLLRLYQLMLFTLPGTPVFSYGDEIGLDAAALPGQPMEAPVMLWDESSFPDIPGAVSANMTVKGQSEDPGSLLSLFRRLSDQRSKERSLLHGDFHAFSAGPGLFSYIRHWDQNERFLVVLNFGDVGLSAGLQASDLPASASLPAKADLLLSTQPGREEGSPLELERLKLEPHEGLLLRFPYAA


Columns and labels:
Assay in all cases: FACS, hybridoma supernatant
[1] = target: T1, Full length mouse CD98hc on CHO cells
[2] = target: T2, human CD98hc endogenously expressed on …
[3] = target: T3, Full length human CD98hc on CHO cells
[4] = target: T1, Full length mouse CD98hc on CHO cells; remark: listed apart in the source
Description: The IgG positive hybridoma supernatants (898 in total) were initially screened for their ability to differentially bind CHO cells overexpressing human or mouse CD98hc cells compared to CHO parental cells by FACS. Overexpressing cells were harvested, washed, and labeled with various concentrations and combinations of CellTrace cell proliferation dyes CFSE and Violet (ThermoFisher, Cat #C34554 and Cat #34557, respectively) to create uniquely barcoded cell populations. Barcoded cells (5×10⁴ of each cell population) were aliquoted into 96-well U-bottom plates and incubated with 50 μl of hybridoma cell culture supernatant or 1 μg/ml of commercially available purified mouse anti-human CD98hc monoclonal antibody (Sigma Aldrich, Cat #SAB 4700503) and rat anti-mouse CD98hc antibody (Bio-Rad Laboratories, Hercules, CA, Cat #MCA2684) on ice for 30 minutes. […] Following this secondary antibody incubation, the cells were again washed twice with ice-cold FACS buffer and resuspended in a final volume of 50 μl of FACS buffer containing 0.25 μl/well propidium iodide (BD Biosciences, Cat #556463). Binding intensity on cells was analyzed using the FACS Canto system (BD Biosciences), with sorting gates drawn to exclude dead (i.e., propidium iodide-positive) cells. For each barcoded cell population, the ratio of APC Mean Fluorescence Intensity (MFI) divided by secondary antibody MFI was calculated for each anti-CD98hc hybridoma supernatant tested and reported in Table 5.

| MFI ratio over secondary antibody [1] | MFI ratio over secondary antibody [2] | MFI ratio over secondary antibody [3] | binding result [4] | Binder |
| --- | --- | --- | --- | --- |
| 1.2 | 124 | 34.4 | no binding | CD98HC.04.063 (antibody, V domains shown, hybridoma IgG) VH: EVKLEESGGGLVQPGGSMILSCVASGFTFSNSWMNWVRQSPEKGLEWVAEIRLRSNNYATHYAESVKGRFTISRDDSKSTVYLQMNNLRAEDTGIYYCSRGDPGAYWGQGTLVTVSA VL: DIQMTQSSSYLSVSLGNRVTITCKASDHIKNWLAWFQQKPGNAPRLLISGATILETGVPSRFSGSGSGKDYTLSITSLQTEDVATYYCQQYWSTPYTFGGGTKLEIK |
| 1.3 | 91.8 | 25.1 | no binding | CD98HC.04.062 (antibody, V domains shown, hybridoma IgG) VH: EVQLVESGGDLVKPGGSLKLSCTASRFAFSTYDMSWVRQTPEKRLEWVAYISSGGGSTYFPDTVKGRFTISRDNAKNTLYLQMSSLKSEDTAMYYCARQDGHYPWFPYWGQGTLVTVSA VL: DIVMSQSPSSLAVSVGEKVTMSCKSSQSLLYSGNQKTYLAWYQQKPGQSPKPLIYWASTRESGIPDRFTGSGSGTDFTLTISSVKAEDLAVYYCQQYYSYPPTFGAGTKLELK |
| 1.2 | 277 | 46.6 | no binding | CD98HC.04.064 (antibody, V domains shown, hybridoma IgG) VH: QVQLQQPGAELVRPGASVKLSCKASGYTFTSYWMNWVRQRPGQGLEWIGLIDPSDSETHYNQMFKDRATLTVDKSSSTAYMQLSSLTSADPAVYYCARASYGKGYFDYWGQGTTLTVSS VL: not shown |
| 1.2 | 158 | 33 | no binding | CD98HC.04.058 (antibody, V domains shown, hybridoma IgG) VH: QVQLQQSGAELVRPGVSVKISCKASGYTFTDHTMHWVKQSHARSLEWIGVISTYFGDASYNPKFKGKATMTVDKSSNTAYMELARLTSEDSAIYYCARVGGRLRLGYYFDYWGQGTTLTVSS VL: NIMMTQSPSSLAVSAGEKVTMNCKSSQTVLYSSNQKNYLAWYQQKPGQSPKLLIYWASTRESGVPDRFTGSGSGTDFTLTISSVQVEDLAVYYCHQYLSSYTFGGGTKLEIK |

Second part, the binder before the results:

| Binder | MFI ratio over secondary antibody [1] | MFI ratio over secondary antibody [2] | MFI ratio over secondary antibody [3] | binding result [4] |
| --- | --- | --- | --- | --- |
| CD98HC.04.046 (antibody, V domains shown, hybridoma IgG) VH: QIQLVQSGPVLKKPGETVKISCKASGYTFTNFGMNWVKQAPGKGLKWMGWIDTYTREPTYVDDFKGRFAFSLETSVTTAYLQINDLKNEDSATYFCARGESHWYFDVWGAGTTVTVSS VL: QIVLTQSPAIMSASLGERVTMTCIVSSSVSSSYLYWYQQKPGSSPKLWIYSTSILASGVPGRFSGSGSGTSYSLTISSMEAEDAATYYCHQYHRSPPTFGGGTKLEIK | 1.2 | 147 | 27.7 | no binding |
| CD98HC.03.004 (antibody, V domains shown, hybridoma IgG) VH: DVQLQESGPGLVKPSQSLSLTCTVTGYSITNNYAWNWIRRFPGNKLEWMAYISYSGYTSYNPSLKSRISITRDTSKNQFFLQLNSVTTEDTATYYCTGYFYYYGGGSFDYWGQGTTLTVSS VL: QAVVTQESALTTSPGETVTLTCRSSTGAVTTSNFANWVQEKPDHLFTGLIRGSNNRAPGVPARFSGSLIGDKAALTITGARTEDEAIYFCALWYSDHWVFGGGTKLTVL | 1 | 189 | 34.4 | no binding |
| CD98HC.03.010 (antibody, V domains shown, hybridoma IgG) VH: EVQLQQSGTELVKPGASVKLSCTASGLDIKDTYLHWVKQRPEQGLEWIGKIDPANGNTKYNPKFQGKATITADTSSNTAYLQLSSLTSEDTAVHYCTTPYYSGSSYGDYWGQGTTLTVSS VL: QIVLTQSPAIMSASPGEKVTLTCSASSSVSSSYLYWYQQKPGSSPKLWIYSTSNLASGVPARFSGSGSGTSYSLTISSMEAEDAASYFCHQWSRYPLTFGAGTKLELK | 1 | 190 | 25.8 | no binding |
